The target of assay [1] is T1, human VEGF-A165 (human, UniProt P15692 207-395). The assay can be described thus: cell-based or functional assay.
Assay [2] has as its target T1, human VEGF-A165. The assay can be described thus: SPR, BIAcore T100, kinetic analysis, 1:1 model. The procedure:
Affinity and Dissociation Constants, KA and KD, respectively, were determined by kinetic analysis fitting a 1:1 interaction model using the BIAcore T100 evaluation software.

Another assay addresses T2, mouse VEGF-A (mouse, UniProt Q00731-2 27-190, limits assumed).
T2 sequence (looked up): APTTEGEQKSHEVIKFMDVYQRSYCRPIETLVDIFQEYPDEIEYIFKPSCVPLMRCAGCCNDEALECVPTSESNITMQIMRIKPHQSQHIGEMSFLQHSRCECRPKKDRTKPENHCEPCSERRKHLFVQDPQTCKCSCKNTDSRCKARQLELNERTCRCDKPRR
The assay can be described thus: ELISA and SPR. (In an ELISA, binding on a coated surface is turned into a signal by an enzyme label.)

In assay [3] the target is T1, human VEGF-A165. The assay can be described thus: SPR, Biacore T100, kinetic analysis, 1:1 model.
The target in the next assay is T3, human VEGF-B186 (human, UniProt P49765 22-207).
T3 construct: also called Vascular endothelial growth factor antigen B
T3 sequence: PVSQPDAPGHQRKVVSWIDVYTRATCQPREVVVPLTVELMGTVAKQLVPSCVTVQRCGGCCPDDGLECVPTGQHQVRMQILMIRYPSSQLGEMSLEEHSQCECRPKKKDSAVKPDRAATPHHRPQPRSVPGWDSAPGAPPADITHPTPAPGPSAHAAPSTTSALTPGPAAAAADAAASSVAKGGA
Description: SPR, Biacore T100, antibody (6.30-0.18 uM) injected over immobilized VEGF-B186 (4000 RU), 1:1 model. The procedure:
KA and KD respectively, were determined by kinetic analysis fitting a 1:1 interaction model using biacore T100 Evaluation software.
Background: Surface plasmon resonance follows binding to a sensor surface in real time, without labels.

The Kd is the equilibrium constant for the complex coming apart. As a reminder, the koff is the first-order rate constant of dissociation. High values mean fast dissociation, low ones slow dissociation. For orientation: kon means a measure of how fast the partners come together. High values mean faster complex formation, low ones slower complex formation.

B1: hMcA-AB1-anti-VEGF-A (humanized monoclonal antibody A-AB1-anti-VEGF-A) (antibody, human IgG1, V domains shown)
VH: QVQLVQSGSELKKPGASVKVSCKASGYTFTNFGMNWVRQAPGQGLEWMGWINTNTGEPTYVDDFKGRFVFSLDTSVSTAYLQISSLKAEDTAVYYCARYYGSTSVWYFDVWGRGTLVTVSS
VL: DIQMTQSPSSLSASVGDRVTITCRASQDIFNYLNWYQQKPGKAPKLLIYYSSRLHSGVPSRFSGSGSGTDFTFTISSLQPEDIATYYCQQGFTLPWTFGQGTKVEIKR
notes: The constant regions come from the vectors pFUSE-CHIg-hG1 (human IgG1 heavy) and pFUSE2-CLIg-hk (human kappa light); also called hMcA-AB1-VEGF-A; humanized mMc-AB1-anti-VEGF-A
For B1, in the assay with human VEGF-A165 [1], the “IC50, HUVEC proliferation assay” value is roughly 19 ng/mL and the “IC50 in the HUVEC proliferation assay against that of bevacizumab” value worked out at 3 fold lower. In the assay with human VEGF-A165 [2], this molecule returned a Ka of 9.24e+09 M⁻¹, a Kd of 0.109 nM, a dissociation rate constant (koff) of 0.000421 s⁻¹ and a kon of 3.83e+06 M⁻¹ s⁻¹. Moreover, in the assay with mouse VEGF-A, the binding result is listed as “no binding”.

B2: mMcA-AB1-anti-VEGF-A (mouse monoclonal antibody A-AB1-anti-VEGF-A) (antibody, V domains shown)
VH: QVKLLESGPELKKPGETVKISCKASGYTFTNFGMNWVKQAPGKGLKWMGWINTNTGEPTYVDDFKGRFAFSLETSASSAYLQISNLNNEDTATYFCARYYGSTSVWYFDVWGAGTTVTVSS
VL: ELVMTQTPSSLSASLGDRVTITCRASQDIFNYLNWYQQKPDGPIKLLIYYSSRLHSGVPSRFSGSGSGTDYSLTISNLDREDIATYFCQQGFTLPWTFGGGTKLEIKR
notes: also called mMc-AB1-anti-VEGF-A; mouse AB1 antibody
Consider B2, for which, in the assay with human VEGF-A165 [3], the Kd is 5.3 pM, the koff turned out to be 9.9e-05 s⁻¹ and the kon worked out at 1.87e+07 M⁻¹ s⁻¹. Moreover, in the assay with human VEGF-A165 [1], the “IC50, HUVEC proliferation assay” value was roughly 11 ng/mL and the “IC50 in the HUVEC proliferation assay against that of bevacizumab” value is 5 fold lower. Besides, the binding result in the assay with mouse VEGF-A is on record as “no binding”. For the same molecule, in the assay with human VEGF-B186, the koff stood at 0.00571 s⁻¹ and the association rate constant (kon) turned out to be 32800 M⁻¹ s⁻¹.

Source of the values: patent US20150315270A1 (CONSEJO NACIONAL DE INVESTIGATION CIENTIFICA, published 2015).
